Data from the supplement of paper PMC10567573.

B1: WEE1 (parent)
chain: INPFTPDSLLLHSSGQCRRRKRTY

Variants of: B1
Test: protein stability index of a GFP-peptide fusion (GPS, HEK-293T) (PSI 1-6); higher = more stable
Conditions: c terminus: a fixed tail appended
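Note: lentivirally expressed fusions sorted by FACS into six bins by GFP to DsRed ratio, PSI derived from sequencing read proportions per bin multiplied by bin number.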

Row | Variant | protein stability index
1 | INPFTPDSLLLISSGQCRRRKRTY [H12I] | 3.6
2 | INPFTPDSLLLKSSGQCRRRKRTY [H12K] | 3.54
3 | INPFTPDSLLLLSSGQCRRRKRTY [H12L] | 2.86
4 | INPFTPDSLLLMSSGQCRRRKRTY [H12M] | 3.32
5 | INPFTPDSLLLNSSGQCRRRKRTY [H12N] | 3.19
6 | INPFTPDSLLLPSSGQCRRRKRTY [H12P] | 3.4
7 | INPFTPDSLLLQSSGQCRRRKRTY [H12Q] | 2.94
8 | INPFTPDSLLLRSSGQCRRRKRTY [H12R] | 3.59
9 | INPFTPDSLLLSSSGQCRRRKRTY [H12S] | 3.87
10 | INPFTPDSLLLTSSGQCRRRKRTY [H12T] | 3.45
11 | INPFTPDSLLLWSSGQCRRRKRTY [H12W] | 2.19
12 | INPFTPDSLLLYSSGQCRRRKRTY [H12Y] | 2.89
13 | INPFTPDSLLLHASGQCRRRKRTY [S13A] | 2.6
14 | INPFTPDSLLLHCSGQCRRRKRTY [S13C] | 2.21
15 | INPFTPDSLLLHDSGQCRRRKRTY [S13D] | 4.08
16 | INPFTPDSLLLHESGQCRRRKRTY [S13E] | 4.01
17 | INPFTPDSLLLHFSGQCRRRKRTY [S13F] | 2.3
18 | INPFTPDSLLLHGSGQCRRRKRTY [S13G] | 3.17
19 | INPFTPDSLLLHHSGQCRRRKRTY [S13H] | 4.14
20 | INPFTPDSLLLHISGQCRRRKRTY [S13I] | 2.85
21 | INPFTPDSLLLHKSGQCRRRKRTY [S13K] | 3.69
22 | INPFTPDSLLLHLSGQCRRRKRTY [S13L] | 2.64
23 | INPFTPDSLLLHMSGQCRRRKRTY [S13M] | 2.84
24 | INPFTPDSLLLHNSGQCRRRKRTY [S13N] | 3.74

Row | Variant | protein stability index
25 | INPFTPDSLLLHPSGQCRRRKRTY [S13P] | 3.63
26 | INPFTPDSLLLHQSGQCRRRKRTY [S13Q] | 3.44
27 | INPFTPDSLLLHRSGQCRRRKRTY [S13R] | 3.12
28 | INPFTPDSLLLHTSGQCRRRKRTY [S13T] | 3.74
29 | INPFTPDSLLLHVSGQCRRRKRTY [S13V] | 2.61
30 | INPFTPDSLLLHWSGQCRRRKRTY [S13W] | 2.54
31 | INPFTPDSLLLHYSGQCRRRKRTY [S13Y] | 3.29
32 | INPFTPDSLLLHSAGQCRRRKRTY [S14A] | 3.3
33 | INPFTPDSLLLHSCGQCRRRKRTY [S14C] | 2.41
34 | INPFTPDSLLLHSDGQCRRRKRTY [S14D] | 3.94
35 | INPFTPDSLLLHSEGQCRRRKRTY [S14E] | 4.31
36 | INPFTPDSLLLHSFGQCRRRKRTY [S14F] | 2.51
37 | INPFTPDSLLLHSGGQCRRRKRTY [S14G] | 2.82
38 | INPFTPDSLLLHSHGQCRRRKRTY [S14H] | 2.93
39 | INPFTPDSLLLHSIGQCRRRKRTY [S14I] | 3.16
40 | INPFTPDSLLLHSKGQCRRRKRTY [S14K] | 2.98
41 | INPFTPDSLLLHSLGQCRRRKRTY [S14L] | 2.35
42 | INPFTPDSLLLHSMGQCRRRKRTY [S14M] | 2.42
43 | INPFTPDSLLLHSNGQCRRRKRTY [S14N] | 3.61
44 | INPFTPDSLLLHSPGQCRRRKRTY [S14P] | 3.54
45 | INPFTPDSLLLHSQGQCRRRKRTY [S14Q] | 3.89
46 | INPFTPDSLLLHSRGQCRRRKRTY [S14R] | 3.81
47 | INPFTPDSLLLHSTGQCRRRKRTY [S14T] | 3.37
48 | INPFTPDSLLLHSVGQCRRRKRTY [S14V] | 2.62

Row | Variant | protein stability index
49 | INPFTPDSLLLHSWGQCRRRKRTY [S14W] | 2.46
50 | INPFTPDSLLLHSYGQCRRRKRTY [S14Y] | 2.36
51 | INPFTPDSLLLHSSAQCRRRKRTY [G15A] | 3.71
52 | INPFTPDSLLLHSSCQCRRRKRTY [G15C] | 2.26
53 | INPFTPDSLLLHSSDQCRRRKRTY [G15D] | 3.39
54 | INPFTPDSLLLHSSEQCRRRKRTY [G15E] | 3.41
55 | INPFTPDSLLLHSSFQCRRRKRTY [G15F] | 1.99
56 | INPFTPDSLLLHSSHQCRRRKRTY [G15H] | 2.72
57 | INPFTPDSLLLHSSIQCRRRKRTY [G15I] | 2.92
58 | INPFTPDSLLLHSSKQCRRRKRTY [G15K] | 3.85
59 | INPFTPDSLLLHSSLQCRRRKRTY [G15L] | 3.56
60 | INPFTPDSLLLHSSMQCRRRKRTY [G15M] | 2.84
61 | INPFTPDSLLLHSSNQCRRRKRTY [G15N] | 3.89
62 | INPFTPDSLLLHSSPQCRRRKRTY [G15P] | 3.05
63 | INPFTPDSLLLHSSQQCRRRKRTY [G15Q] | 3.72
64 | INPFTPDSLLLHSSRQCRRRKRTY [G15R] | 4.12
65 | INPFTPDSLLLHSSSQCRRRKRTY [G15S] | 3.02
66 | INPFTPDSLLLHSSTQCRRRKRTY [G15T] | 3.21
67 | INPFTPDSLLLHSSVQCRRRKRTY [G15V] | 2.79
68 | INPFTPDSLLLHSSWQCRRRKRTY [G15W] | 2.54
69 | INPFTPDSLLLHSSYQCRRRKRTY [G15Y] | 2.9
70 | INPFTPDSLLLHSSGACRRRKRTY [Q16A] | 3.31
71 | INPFTPDSLLLHSSGCCRRRKRTY [Q16C] | 2.8
72 | INPFTPDSLLLHSSGDCRRRKRTY [Q16D] | 3.45

Row | Variant | protein stability index
73 | INPFTPDSLLLHSSGECRRRKRTY [Q16E] | 3.69
74 | INPFTPDSLLLHSSGFCRRRKRTY [Q16F] | 2.65
75 | INPFTPDSLLLHSSGGCRRRKRTY [Q16G] | 3.5
76 | INPFTPDSLLLHSSGHCRRRKRTY [Q16H] | 3.06
77 | INPFTPDSLLLHSSGICRRRKRTY [Q16I] | 3.56
78 | INPFTPDSLLLHSSGKCRRRKRTY [Q16K] | 3.69
79 | INPFTPDSLLLHSSGLCRRRKRTY [Q16L] | 2.81
80 | INPFTPDSLLLHSSGMCRRRKRTY [Q16M] | 2.92
81 | INPFTPDSLLLHSSGNCRRRKRTY [Q16N] | 4.03
82 | INPFTPDSLLLHSSGPCRRRKRTY [Q16P] | 3.92
83 | INPFTPDSLLLHSSGRCRRRKRTY [Q16R] | 3.95
84 | INPFTPDSLLLHSSGSCRRRKRTY [Q16S] | 3.61
85 | INPFTPDSLLLHSSGTCRRRKRTY [Q16T] | 3.41
86 | INPFTPDSLLLHSSGVCRRRKRTY [Q16V] | 2.97
87 | INPFTPDSLLLHSSGWCRRRKRTY [Q16W] | 2.51
88 | INPFTPDSLLLHSSGYCRRRKRTY [Q16Y] | 3.52
89 | INPFTPDSLLLHSSGQARRRKRTY [C17A] | 3.64
90 | INPFTPDSLLLHSSGQDRRRKRTY [C17D] | 4.42
91 | INPFTPDSLLLHSSGQERRRKRTY [C17E] | 4.09
92 | INPFTPDSLLLHSSGQFRRRKRTY [C17F] | 3.06
93 | INPFTPDSLLLHSSGQGRRRKRTY [C17G] | 3.69
94 | INPFTPDSLLLHSSGQHRRRKRTY [C17H] | 3.44
